Reference: paper PMC5959011

Experiments:
[1] = target: smallest capsid protein (SCP) VP26 (herpes simplex virus type 1 (HSV-1), strain KOS) (UniProt P10219); test: cryo-EM structure
[2] = target: tegument protein pUL25 (herpes simplex virus type 1 (HSV-1), strain KOS) (UniProt P10209); test: cryo-EM structure

| Substance | stoichiometry N [1] | stoichiometry N [2] |
| --- | --- | --- |
| smallest capsid protein (SCP) VP26 (from UniProt P10219 1-112) (natural protein) | 6 | – |
| tegument protein pUL25 (from UniProt P10209 1-580) (natural protein) | – | 2 |
